B1: Guanyl-specific ribonuclease Sa, P05798 (parent)
chain: DVSGTVCLSALPPEATDTLNLIASDGPFPYSQDGVVFQNRESVLPTQSYGYYHEYTVITPGARTRGTRRIITGEATQEDYYTGDHYATFSLIDQTC

Variants of: B1
Conditions: Kitasatospora aureofaciens, pH 7, Thermal, CD, MOPS 30 mM, reversible: yes(>95%), structure 1RGG, whole UniProt chain shown; for ddG of mutation (higher = less stable): 48.4 °C

Variant	ddG of mutation (higher = less stable) [kcal/mol]	Tm [°C]	change of melting temperature, mutant - wild type (higher = more stable) [°C]	unfolding enthalpy (van 't Hoff) [kcal/mol]
T56V	1.9	42.1	-6.3	85
T59V	1.7	42.8	-5.6	81
V2T	0.9	45.2	-3.2	86
V57T	4.4	33.4	-15	74
T67V	0	48.3	-0.1	88
T16V	-0.3	49.4	1	88
V36T	1.3	43.8	-4.6	88
T72V	0.2	47.6	-0.8	91
T5V	0	–	–	–
T82V	1.7	42.7	-5.7	81
V43T	0.5	46.8	-1.6	93
T18V	1.4	43.7	-4.7	80

— FireProtDB (doi:10.1074/jbc.m304177200)
